Assay: soluble on expression in E. coli; label from the status in PepcDB or PDB records

Sequence | soluble on expression in E. coli
MNAATLVDTHAVDTALQEAFEAAPEGFALFDAEDRCVIWNARYGELWSKWGVTLAVGATFESLLLAGLAAGRFPEANGDRAAWLAHQLGRRKLDRIEEIREEFGEYLRFESRRTPAGGLITTCANLTNLRRREAQALAARSFLDTIVENTPAMLFVKDGDTGAFLLVNRAAENQLGVPRAELLGKSDYDFFPKEQADAFAADDRRVIASGKLVTIDEEPLDTPHNGRRWLQTRKIAIPGEDGRRHLLVICEDITERKAGAAALAEALQKAEAGSVAKSEFLANMSHEIRTPLNGVIGMAEVLSRTALDDAQREMMEVILNSGRALNLLLSDILDLSKIEAGGLELSRDPLDLREAITAAVAVFKAVAESKGLVFRLTFADDFHDHVLGDALRVRQIVANLTSNAVKFTTAGSVIIEARTLVAEDGRIDLTVSVQDTGEGFDEDSADRLFERFQQADGSVTRKVGGTGLGLPIARRLARLMDGEISCVAHPGEGATFVFEALFLADGQRTPAASADPAGELALDRRLRVLLAEDHPTNQKVIGLMLADAADVTVAEDGQAAVEAFEKHAYDVVLMDTQMPVMDGLAAIAEIRRREREAQARRTPIISLTANAMPHQVRACLEAGADLHLAKPVSIQGLFATLGAALETRPGGEGLEHHHHHH | not soluble
MNANIMLNEDITPIGSDYDTVRGVIELLTLDYREQPSLEAIAARLGQSPTQLQKTFTRWAGLSPKAFLQAVTLDHAKRLLREEDLPLLETSIEVGMSGPGRLHDLFVTHEAMSPGEWKAKGGGLTIRYGFHASPFGLALVMITDRGLAGCAFADPGDERACFEDMAGRWPNADYVEDREATAPYAARIFEPAMWTADKPLRVVLLGTDFQVRVWKSLLKIPMGRAVTYSNIACDIGQPTASRAVGAAVGANPVSFVVPCHRAVGKSGALTGYHWGLTRKRAMLGWETGKALEHHHHHH | not soluble
MNAQIKIINTANGYMALCQDTPEDITPAWFSVDFWREKSAVVGSSKGRYTTWFVAFEHSHWVLRHYWRGGMMEKFSKDAYFYTGLENTRAMGELRLLDALYREQFAVPKPIAANIVRDGLFYRADIIIERVDGAEDLVAKLTKGTMTQAQWHALGATIAQFHRRGVYHADLNAKNILWQPQQTDSAQERFYLIDFDRGELKTPNAKWQKANLDRLLRSFNKEQGKQPTLAFTPANWAALLEGYHAVVPKVAAALEHHHHHH | soluble
MNASLYQQYVQAKAEHPGKYARDLATLMGISEAELTHSRVGHDAKRLQSDARALLAALESVGEVKAITRNTYAVHEQVGRYENQHLNGHAGLILNPRALDLRLFLNQWASAFTLTEETRHGVRHSIQFFDHQGDALHKVYVTEQTDMSAWEALLAQFIIPENPALQLEPLSTPEAVEPTADDATVDSEWRAMTDVHQFFQLLKRNNLTRQQAFRAVGDDLAYQVDNNSLTQLLHIAQQDQNEIMIFVGNRGCVQIFTGLIEKVTPHNEWINVFNQRFTLHLIETAIAESWITRKPTKDGFVTSLELFAADGTQLAQLYGQRTEGQPEQNQWREQIARLINKDIAA | not soluble
MNAVAPLIPCIVSGGSGTRLWPVSRESMPKPFMRLADDQSLLQKTFLRIAGLPDVARLLTVTNRDLLFRTLDDYRAVNRSGLAQDLLLEPVGRNTAPAIAAAALHVQEHFGDQAQLLILPADHLIRDEQAFAAAVAEARGLAAQGYLVTFGITPERAETGFGYIEQGAPLGNGFRVARFVEKPDQATAQSYLDSGKYLWNAGMFCFQAATVLQELERHAPEVLIAARAALADGSSLENGQCRQRELAAGAFAEAPDISVDYALMERSDKVAVVPCSIGWSDIGSWQALRELSAADENGNQVRGESVLHDVSNCYIDSPKRLVGAVGVHDLIIVDTPDALLVADAARSQDVKFVAQELKRRGHDAFRLHRTVSRPWGTYTVLEEGRRFKIKRIVVRPKASLSLQMHHHRSEHWIVVSGMALVENGEREFLLNTNESTFIPAGHSHRLSNPGIIDLVMIEVQSGEYLGEDDIVRFNDIYGRAPASDEKK | not soluble
MNDDTRARGGREGGLRAARDRLQPALLDRLTDDERARCTEPPDAQAIGGERLRAAVLRDLAWLLNTRNGEDGFVDWAAFAHAQASVLNYGMRPLVGKPMSGVERMSVEASIRDAIVRFEPRIAPDSVEVRSVLDAPGGAAGERRHNVLMFEIKGTLWSVPHPVEFVLRSALDLETGAMALQPAAGG | not soluble
MNDKKLLVAYDISSNRRRRKVARILEQCGIRINKSVFICSLRELTMDKLVEAVTSQTAKRDKVFFLPLCQHCYTAAWMSGHPTLPKSRRKRKSIVV | not soluble
MNEFEDLLNSVSEVNPGDVVTAEVLTVDNGQANVVIDGTGVEGVLTLRELTNDRDADINDFVKAGDTVEVLVLRQVVGKDTDTVTFLVSKKRLEARKAWDKLVGREGEVVTVKGTRAVKGGLSVEFEGLRGFIPASMIDTRFVRNTEKFVGQEFDAKIKEVDAAENRFILSRREVVEESAAAARKEVFSNIEVGSVVTGKVARLTSFGAFIDLGGVDGLVHVTELSHERNVSPKSVVTVGEEVEVKVLSIDEEAGRVSLSLKATTPGPWDGVEQKLAAGDVIEGKVKRLTDFGAFVEVLPGIDGLVHISQISHKRVENPKDVLSAGQEVTVKVLEVNSDAERVSLSMKALEERPAQAEGEKEEKRQSRPRRPRRQEKRDYELPETQTGFSMADLFGDIELLEHHHHHH | soluble
MNEIKCPNCGEVFTVNESQYAELLSQVRTAEFDKELHDRMKQELALAEQKAMNEQQTKLAQKDQEIAQLQSQIQNFDTEKELAKKEVEQTSHEALLAKDKEVQLLENQLATLRLEHENQLQKTLSDLEKERDQVKNQLLLQEKENELSLASVKQNYEAQLKAASEQVEFYKNFKAQQSTKAIGESLEQYAESEFNKVRSFAFPNAYFEKDNKVSSRGSKGDFIFRECDENGVEIISIMFEMKNEADGTEKKHKNADFYKELDKDRREKNCEYAVLVTMLEADNDYFNTGIVDVSHEYEKMYVVRPQFFIQLIGLLRNAALNSLKYKQELALVREQNIDITHFEEDLDAFKLAFAKNYNSASTNFGKAIDEIDKAIKRMEEVKKFLTTSENQLRLANNKLEDVSVKKLTRKNPTMKAKFEALKGE | not soluble
MNEINESYDTDSVREFTVSDADAGPYALAEGPDGALWFTLVHRGAVARRDPDDGRVTVHPVGDGPTVIAPGPDGALWFTEYRAHRIGRITPEGHYASFAPLTPEGGPFGITAGPDGAMWFTLSSADRVGRVTMDGEVTEHPAPGAFPSALTAGPDGALWCTLNQGNAIGRLTPDGHGTAYPLPTPGAAPVGIAAGPDGALWFTEIGAGRIGRITVTGDLTEYPLSDPAARPHAVTAGPNGALWFTEWGSGRVGRITVDGRVTSYPLSRTDCEPHGIAVHDGALWCALETGSLARIQVPA | soluble
MNEIYDREQMIKLLDLAKNTEMELPINLAIGLGLRISEVLGLTWDNIDFEENTITVNKITSRINGSVILKEPKTESSVRKISSPKELMSLLKEYKIKQNKNLLKSSIRNNNNLLFFNKKCEPIAEDVMSKKFKRFLEKNELPHIRFHDLRHSHVTLLINSKVPIKVISERVGHSNISTTLSVYSHVLKEMDKEASDKISESLFNANLEHHHHHH | not soluble
MNELVDTTEMYLRTIYDLEEEGVTPLRARIAERLDQSGPTVSQTVSRMERDGLLRVAGDRHLELTEKGRALAIAVMRKHRLAERLLVDVIGLPWEEVHAEACRWEHVMSEDVERRLVKVLNNPTTSPFGNPIPGLDELGVGPEPGADDANLVRLTELPAGSPVAVVVRQLTEHVQGDIDLITRLKDAGVVPNARVTVETTPGGGVTIVIPGHENVTLPHEMAHAVKVEKV | soluble
MNENQLSKRLATVGDLIPRGSRLADIGSDHAYLPVALMLENKLSFAVAGEVVEGPYQSAKTQVSKSNLTDKIIVRLANGLDAIEPEDQIDVISICGMGGTLIRDILEAGRKKNRLTGKERLVLQPNIGEPTLRRWLMANDYSIIDETIVEENRKLYEIIVAEKTEQSVSYTDQELLFGPVLIKKQGPVFTKKWQRELKQRKTVLAQLAKASGEHIEKQAKLQQDQQLIEEVLANGCER | not soluble
MNERGMLVDPRFDAFFKLEQIDDYKYDGADTSPSTSNGLPETSNGGRLICDVCGDVAFGKHYGINACNGCKGFFRRSVWSRRQYSCRFGGDCPVVKEHRNVCRSCRLKKCFEVGMNPDSVQNERDRNAKNGGMGGPMSSPTQSSLCKELTISNGQIKRKRLRPETVEKTTQTDGKLEINDDFDFENMQQNPTPPGLLPLKIERISTPPSDLPVPMDFSIHSAVLDIEQKVFYNCPVAVDNSINATKTPITLPFEVVFRQPHLVCNRYPMRFSNTRVLTPEDLIDGWRRHFTYYSDWCHAMDEFKALSPEDQIVLAKKKIILHGWLVHAYYSYKSGCNGICFANGAAHLPEGGHPSITEFYKECMPRYLNYVIYPMHNFQMDDAEMVLIKCIMFFSSESGLSAAGRQIVSAAREKYLSALYNYGRANKCTTSAQATLRIAKFMIMLSAITSLTHLMNEGVHVTSLFNIIEFDELIQATHKTTPPQHSPPAPMG | not soluble
MNFNVIICGVGGQGVVLASRLLAITAMNSGFHVNTAETLGMSQREGSVVSHLQFGENIKSSLIPEGSTDLIIGLEVSEVARNIHFLKKDGKIITNSNLILPSARSSNEKYDSEKIINFIKEKVKSTICIDFSKIAKVAGNPKSMNVSVLSAAFYTGFLPLEYEDFLKTIESEIPEKYRDINLNATKLSAETISNMLEGHNE | not soluble
MNFRTGQPSDAAALAAISIEVWLGTYMRKGVSAFFAEYALNEFTSTKMASLLKDPNEHVIVSENEGGIDAFIRLGQGRAAPVSGCSTLEIATLYVQPRHHRRGLGRALLEQGLAYARQASAPSVWLTTNSENAPAIAFYLEQGFEKVGTTHFNIGDQ | not soluble
MNGNQARNDIDEWLKTAACIKHPAGCVDQDGHSAFSDREGNLFQLAVPDAFSSLHLYGTLLELQPAVDGRVLASALAINAQKNVLRGSVIALNTENQELFVHHTVTLESLDRVALWQTLDNFVALTRELRSALRSQPVPAAKIESTHFNHLRRGF | not soluble
MNGSADAGPRPRKYVFITGGVVSSLGKGILTSSLGALLRARGYRVTAIKIDPYVNVDAGTMRPYEHGEVFVTADGAETDLDIGHYERFLDMDLSRGNNLTTGQVYLSVIQKERRGEYLSQTVQVIPHITDEIKERIRKVAEEQKAEIVVVEVGGTVGDIESLPFLEAIRQFRFDEGEGNTLYLHLTLVPYLETSEEFKTKPTQHSVATLRGVGIQPDILVLRSARPVPEEVRRKVALFTNVRPGHVFSSPTVEHLYEVPLLLEEQGLGRAVERALGLEAVIPNLSFWQEAVRVLKHPERTVKIAIAGKYVKMPDAYLSLLEALRHAGIKNRARVEVKWVDAESLEAADLDEAFRDVSGILVPGGFGVRGIEGKVRAAQYARERKIPYLGICLGLQIAVIEFARNVAGLKGANSTEFDPHTPHPVIDLMPEQLEVEGLGGTMRLGDWPMRIKPGTLLHRLYGKEEVLERHRHRYEVNPLYVDGLERAGLVVSATTPGMRGRGAGLVEAIELKDHPFFLGLQSHPEFKSRPMRPSPPFVGFVEAALAYQERA | soluble
MNHMEILSFPAGPYQTNCYVVLSEESEGRRYASVIDPGLRAKELIDQYCEENRVEVVQVLLTHGHIDHCRDAAALANGWGVALQIHRYDEFFLDKGNGMSEDSRLLFHADAMNLPDSVSYLGDGDEVELGGQRFVVRHAPGHSPGCVLFVGKDFCFSGDVLFKGSIGRTDLAHSDPHAMSNSIKSVVLGLEDSLTILPGHGPATTMRAEKASNPYLRV | not soluble
MNIAKLIDHTILKANTTKEDVMKVIEEAKEYKFASVCINPTWVKLAAEELAGHDVDVCTVIGFPLGASTTETKAFETKDAIAKGATEVDMVINVGALKDGDNELVEKDIYEVVQAAKGKALVKVIIETCLLTDEEKVRACELSVKAGADFVKTSTGFSTGGATAEDIALMRKTVGPNVGVKASGGVRTREDAEKMVAAGASRVGASASVAIVLNDAKGATDNY | not soluble
